Measurements: publication PMC6430648

B1: PCSK9 Charged-2 (ssDNA)
DNA: CGAATCAGATTGGACCAGTTTCATCCCTTTTTGCCACCCCTTTGTTGTCCACCCCCATGTCCTGAGTCCAGATGTAGGTAG
modifications: none (no functionalized codon)
B2: PCSK9 Unfunctionalized-3 (ssDNA)
DNA: CGAATCAGATTGGACCAGCACCCTCCGTCTCCGCTCCCCTCGTCTTGTTGTTTCCCTTTCCCTGAGTCCAGATGTAGGTAG
B3: IL-6 Unfunctionalized-1 (ssDNA)
DNA: CTCGGATGAACCTGGACTTTATTGCACTGGCTGTACTTTTCGTATCCATGGTCATCTTTTCTAGCATCGAAGCCAAGATTC
B4: PCSK9 Unfunctionalized-1 (ssDNA)
DNA: CGAATCAGATTGGACCAGTTACCGCCCTCTCCCTTTTGTCCCCTCCGTTGTTTCTCTTTCCCTGAGTCCAGATGTAGGTAG
B5: IL-6 Unfunctionalized-4 (ssDNA)
DNA: CTCGGATGAACCTGGACTTAATGATGCTCATGGTGCTCTTCATCACCATCTTCGTTCCATCCTGCATCGAAGCCAAGATTC
B6: IL-6 Unfunctionalized-5 (ssDNA)
DNA: CTCGGATGAACCTGGACTTCTTCATTGCGCTGGTGCCTGCCATCCTTGTTCCATCCCCTTTGCGCATCGAAGCCAAGATTC
B7: IL-6 Unfunctionalized-2 (ssDNA)
DNA: CTCGGATGAACCTGGACTTTACTGCGGCGCCAGCCGTGCCCATCCTTTCTTCATCCGTGCCCAGCATCGAAGCCAAGATTC
B8: IL-6 Unfunctionalized-3 (ssDNA)
DNA: CTCGGATGAACCTGGACTCTGTTTTTACTACCGCGCTAGCCGCCTCATCCGTTTTAGCGCCATGCATCGAAGCCAAGATTC

What was measured:
PCSK9 = PCSK9 (UniProt Q8NBP7 153-692); assay: SPR
IL-6 = IL-6 (UniProt P05231 30-212); assay: SPR
IL-6, sequence (P05231 30-212): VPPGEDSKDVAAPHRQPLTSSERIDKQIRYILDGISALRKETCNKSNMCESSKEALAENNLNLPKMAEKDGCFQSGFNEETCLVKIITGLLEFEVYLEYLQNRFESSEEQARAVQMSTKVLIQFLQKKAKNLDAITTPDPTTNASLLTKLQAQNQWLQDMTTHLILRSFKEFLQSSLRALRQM

PCSK9, sequence (Q8NBP7 153-692): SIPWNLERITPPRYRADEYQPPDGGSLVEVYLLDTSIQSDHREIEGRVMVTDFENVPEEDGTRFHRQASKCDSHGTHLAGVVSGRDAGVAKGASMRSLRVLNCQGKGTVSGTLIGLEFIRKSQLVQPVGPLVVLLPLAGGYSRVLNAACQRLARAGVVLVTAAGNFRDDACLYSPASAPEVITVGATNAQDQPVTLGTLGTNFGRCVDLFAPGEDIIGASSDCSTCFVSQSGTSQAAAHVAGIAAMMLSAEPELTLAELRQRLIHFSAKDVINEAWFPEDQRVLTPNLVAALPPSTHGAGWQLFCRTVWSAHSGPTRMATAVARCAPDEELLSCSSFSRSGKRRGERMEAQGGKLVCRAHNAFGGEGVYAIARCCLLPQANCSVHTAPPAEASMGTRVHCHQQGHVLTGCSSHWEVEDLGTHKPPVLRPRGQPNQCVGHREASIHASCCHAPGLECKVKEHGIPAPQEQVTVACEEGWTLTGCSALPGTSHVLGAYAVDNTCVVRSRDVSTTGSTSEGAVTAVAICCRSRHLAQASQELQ

Binder | binding signal (PCSK9) [%Rmax] | binding signal (IL-6) [%Rmax]
B1 | 11 | 
B2 | 34 | 
B3 |  | 4
B4 | 30 | 
B5 |  | 4
B6 |  | 4
B7 |  | 3
B8 |  | 3
